# Experimental data published in paper PMC5741103.
# Columns and labels:
# SLMAP [1] = target: SLMAP (UniProt Q14BN4); assay: co-IP, MST2 variants and V5-SLMAP
# SLMAP [2] = target: SLMAP (UniProt Q14BN4); assay: co-IP, FLAG-MST2 and V5-SLMAP; conditions: reference: wild type MST2; sites T325,T336,T378
Substance,"binding against the reference (SLMAP [1]; reference: MST2-6A/325T, sites T325)","binding against the reference (SLMAP [1]; reference: MST2-6A/336T, sites T336)","binding against the reference (SLMAP [1]; reference: MST2-6A/378T, sites T378)",binding against the reference (SLMAP [2])
MST2 (from UniProt Q13188) MST2-7A,lost,lost,lost,
MST2 (from UniProt Q13188) MST2-3A,,,,lost
